Measured values as given in the supplement of paper PMC10201428.
± gives the standard deviation of the averaged measurements.

Key:
[1] = system: VchCAST RNA-guided transposition machinery (E. coli BL21(DE3) host, lacZ target); assay: relative integration efficiency (T-LR orientation) vs wild-type transposon end (log2 (normalized fold change)); transposon end mutated: left end; higher = more efficient transposition
Method in brief: (§1)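 Barcode abundances in input plasmids and in genomic integration junctions were obtained by PCR amplification and Illumina sequencing. These came from E. coli BL21(DE3) co-transformed with a T7-driven effector plasmid and a pUC57 donor carrying 1549 left-end or 1849 right-end transposon variants, then plated with 0.1 mM IPTG at 37°C for 18 h. Relative integration efficiency is the output/input fold change, normalised to reference barcodes and log-transformed.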

[2] = system: VchCAST RNA-guided transposition machinery (E. coli BL21(DE3) host, lacZ target); assay: relative integration efficiency (T-RL orientation) vs wild-type transposon end (log2 (normalized fold change)); transposon end mutated: left end; higher = more efficient transposition
Method in brief: as §1

Sequence	relative integration efficiency (log2) [1]	relative integration efficiency (log2) [2]
AATGTTGTTGATGCAACCATAAAGTGATATTTAATAATTATTTATAATCAGCAACTTAACCACAAAACAACCATATATTGATATCTCACAACAACCATAAGTTGATATTTTTGTGAATCGAGTATTTCAGCAAAACTACTGCAGTAAGAAAG	-1.51 ± 0.32	-3.43 ± 0.95
AATGTTGTTGATGCAACCATAAAGTGATATTTAATAATTATTTATAATCAGCAACTTAACCACAAAACAACCATATATTGATATCTCACAACCACCAACGCCTGGTCGCGGGGGTGTCCGATCTGATTTCAGCAAAACTACTGCAGTAAGAA	-0.813 ± 1.4	-2.63 ± 0.74
AATGTTGTTGATGCAACCATAAAGTGATATTTAATAATTATTTATAATCAGCAACTTAACCACAAAACAACCATATATTGATATCTCACAACCATAAGTTGATATTTTTGTGAATCGAGTATTTCAGCAAAACTACTGCAGTAAGAAAGTTA	-1.81 ± 1.5	-3.63 ± 0.88
AATGTTGTTGATGCAACCATAAAGTGATATTTAATAATTATTTATAATCAGCAACTTAACCACAAAACAACCATATATTGATATCTCACACAACCATAAGTTGATATTTTTGTGAATCGAGTATTTCAGCAAAACTACTGCAGTAAGAAAGT	-1.4 ± 0.91	-3.26 ± 0.94
AATGTTGTTGATGCAACCATAAAGTGATATTTAATAATTATTTATAATCAGCAACTTAACCACAAAACAACCATATATTGATATCTCACACCCACCAACGCCTGGTCGCGGGGGTGTCCGATCTGATTTCAGCAAAACTACTGCAGTAAGAA	-1.23 ± 1.7	-2.48 ± 0.87
AATGTTGTTGATGCAACCATAAAGTGATATTTAATAATTATTTATAATCAGCAACTTAACCACAAAACAACCATATATTGATATCTCACCAACCATAAGTTGATATTTTTGTGAATCGAGTATTTCAGCAAAACTACTGCAGTAAGAAAGTT	-2.01 ± 2.7	-3.37 ± 0.94
AATGTTGTTGATGCAACCATAAAGTGATATTTAATAATTATTTATAATCAGCAACTTAACCACAAAACAACCATATATTGATATCTCACCCCCACCAACGCCTGGTCGCGGGGGTGTCCGATCTGATTTCAGCAAAACTACTGCAGTAAGAA	-1.5 ± 1.8	-2.66 ± 0.95
AATGTTGTTGATGCAACCATAAAGTGATATTTAATAATTATTTATAATCAGCAACTTAACCACAAAACAACCATATATTGATATCTCCAACCATAAGTTGATATTTTTGTGAATCGAGTATTTCAGCAAAACTACTGCAGTAAGAAAGTTAC	-1.44 ± 1.2	-3.71 ± 1.5
AATGTTGTTGATGCAACCATAAAGTGATATTTAATAATTATTTATAATCAGCAACTTAACCACAAAACAACCATATATTGATATCTCCACCCCACCAACGCCTGGTCGCGGGGGTGTCCGATCTGATTTCAGCAAAACTACTGCAGTAAGAA	-0.685 ± 1.1	-2.45 ± 0.85
AATGTTGTTGATGCAACCATAAAGTGATATTTAATAATTATTTATAATCAGCAACTTAACCACAAAACAACCATATATTGATCGAGACACCCCACCAACGCCTGGTCGCGGGGGTGTCCGATCTGATTTCAGCAAAACTACTGCAGTAAGAA	-2.14 ± 1.3	-3.99 ± 1.6
AATGTTGTTGATGCAACCATAAAGTGATATTTAATAATTATTTATAATCAGCAACTTAACCACAAAACAACCATATATTGCGCGAGACACCCCACCAACGCCTGGTCGCGGGGGTGTCCGATCTGATTTCAGCAAAACTACTGCAGTAAGAA	-2.63 ± 0.53	-4.62 ± 1.1
AATGTTGTTGATGCAACCATAAAGTGATATTTAATAATTATTTATAATCAGCAACTTAACCACAAAACAACCATATATTTCGCGAGACACCCCACCAACGCCTGGTCGCGGGGGTGTCCGATCTGATTTCAGCAAAACTACTGCAGTAAGAA	-4.98 ± 3.6	-6 ± 1.3
AATGTTGTTGATGCAACCATAAAGTGATATTTAATAATTATTTATAATCAGCAACTTAACCACAAAACAACCATCGCGGTCGCGAGACACCCCACCAACGCCTGGTCGCGGGGGTGTCCGATCTGATTTCAGCAAAACTACTGCAGTAAGAA	-3.94 ± 2.1	-7.35 ± 1.8
AATGTTGTTGATGCAACCATAAAGTGATATTTAATAATTATTTATAATCAGCAACTTAACCACAAAACAACCCGCGCGGTCGCGAGACACCCCACCAACGCCTGGTCGCGGGGGTGTCCGATCTGATTTCAGCAAAACTACTGCAGTAAGAA	-4.43 ± 0.75	-7.91 ± 1.9
AATGTTGTTGATGCAACCATAAAGTGATATTTAATAATTATTTATAATCAGCAACTTAACCACAAAACACAACGCGCGGTCGCGAGACACCCCACCAACGCCTGGTCGCGGGGGTGTCCGATCTGATTTCAGCAAAACTACTGCAGTAAGAA	-4.26 ± 0.12	-6.99 ± 3
AATGTTGTTGATGCAACCATAAAGTGATATTTAATAATTATTTATAATCAGCAACTTAACCACAAAACACCCATAAATTGATAATTAACAAAAGTTGGTATTCAACTATAAAATGTGAATCGAGTATTTCAGCAAAACTACTGCAGTAAGAA	-1.11 ± 0.65	-2.72 ± 0.87

Sequence	relative integration efficiency (log2) [1]	relative integration efficiency (log2) [2]
AATGTTGTTGATGCAACCATAAAGTGATATTTAATAATTATTTATAATCAGCAACTTAACCACAAAACACCCATAAATTGATATTGCACAAAAGTTGGTATTCAACTATAAAATGTGAATCGAGTATTTCAGCAAAACTACTGCAGTAAGAA	-0.929 ± 1.3	-3.12 ± 1
AATGTTGTTGATGCAACCATAAAGTGATATTTAATAATTATTTATAATCAGCAACTTAACCACAAAACCCAACGCGCGGTCGCGAGACACCCCACCAACGCCTGGTCGCGGGGGTGTCCGATCTGATTTCAGCAAAACTACTGCAGTAAGAA	-2.9 ± 0.65	-7.08 ± 1.4
AATGTTGTTGATGCAACCATAAAGTGATATTTAATAATTATTTATAATCAGCAACTTAACCACAAAAGTTGGTATATAACTATAGAGACAAAACAACCATAAGTTGATATTTTTGTGAATCGAGTATTTCAGCAAAACTACTGCAGTAAGAA	-1.8 ± 1.5	-2.65 ± 1.1
AATGTTGTTGATGCAACCATAAAGTGATATTTAATAATTATTTATAATCAGCAACTTAACCACAAAATGTGAATCGACAACCATATATTGATATCTCACAAAACAACCATAAGTTGATATTTTGTATTTCAGCAAAACTACTGCAGTAAGAA	-3.12 ± 0.12	-2.45 ± 0.87
AATGTTGTTGATGCAACCATAAAGTGATATTTAATAATTATTTATAATCAGCAACTTAACCACAAAATGTGAATCGAGTATTCAACCATATATTGATATCTCACAAAACAACCATAAGTTGATATTTTTCAGCAAAACTACTGCAGTAAGAA	-2.89 ± 0.26	-4 ± 1.4
AATGTTGTTGATGCAACCATAAAGTGATATTTAATAATTATTTATAATCAGCAACTTAACCACAAAATGTGAATCGAGTATTTCAGCAAAACCAACCATATATTGATATCTCACAAAACAACCATAAGTTGATATTTTTACTGCAGTAAGAA	-3.73 ± 1.1	-4.28 ± 1
AATGTTGTTGATGCAACCATAAAGTGATATTTAATAATTATTTATAATCAGCAACTTAACCACAAAATGTGAATCGAGTATTTCAGCAAAACTACTGCAGTAAGAATCAACCATATATTGATATCTCACAAAACAACCATAAGTTGATATTT	-5.03 ± 3.6	-5.36 ± 1.6
AATGTTGTTGATGCAACCATAAAGTGATATTTAATAATTATTTATAATCAGCAACTTAACCACAAAATGTGAATCGAGTATTTCAGCAAAACTACTGCAGTACAACCATATATTGATATCTCACAAAACAACCATAAGTTGATATTTTAGAA	-3.82 ± 1.3	-6.01 ± 0.9
AATGTTGTTGATGCAACCATAAAGTGATATTTAATAATTATTTATAATCAGCAACTTAACCACAAAATGTGACAACCATATATTGATATCTCACAAAACAACCATAAGTTGATATTTTATCGAGTATTTCAGCAAAACTACTGCAGTAAGAA	-4.36 ± 1.1	-4.95 ± 0.52
AATGTTGTTGATGCAACCATAAAGTGATATTTAATAATTATTTATAATCAGCAACTTAACCACAAACAACCATATATTGATATCTCAACAAAACAACCATAAGTTGATATTTTTGTGAATCGAGTATTTCAGCAAAACTACTGCAGTAAGAA	-1.17 ± 1.5	-1.37 ± 0.49
AATGTTGTTGATGCAACCATAAAGTGATATTTAATAATTATTTATAATCAGCAACTTAACCACAAACAACCATATATTGATATCTCACAAAACAACCATAAGTTGATATTTTATGTGAATCGAGTATTTCAGCAAAACTACTGCAGTAAGAA	-1.02 ± 0.3	-0.754 ± 0.26
AATGTTGTTGATGCAACCATAAAGTGATATTTAATAATTATTTATAATCAGCAACTTAACCACAAACAACCATATATTGATATCTCACAAAACAACCATAAGTTGATATTTTTGTGAATCGAGTATTTCAGCAAAACTACTGCAGTAAGAAA	-0.356 ± 0.049	-0.248 ± 0.24
AATGTTGTTGATGCAACCATAAAGTGATATTTAATAATTATTTATAATCAGCAACTTAACCACAACAACCATATATTGATATCTCACAAAACAACCATAAGTTGATATTTTTGTGAATCGAGTATTTCAGCAAAACTACTGCAGTAAGAAAG	-2.53 ± 1.4	-2.31 ± 0.76
AATGTTGTTGATGCAACCATAAAGTGATATTTAATAATTATTTATAATCAGCAACTTAACCACAACCACCAACGCGCGGTCGCGAGACACCCCACCAACGCCTGGTCGCGGGGGTGTCCGATCTGATTTCAGCAAAACTACTGCAGTAAGAA	-4.35 ± 3.3	-5.83 ± 1.9
AATGTTGTTGATGCAACCATAAAGTGATATTTAATAATTATTTATAATCAGCAACTTAACCACAACCATATATTGATATCTCACAAAACAACCATAAGTTGATATTTTCAAAATGTGAATCGAGTATTTCAGCAAAACTACTGCAGTAAGAA	-2.53 ± 1.4	-5.07 ± 0.94
